Consider 24 sequences from the Immune Epitope Database (IEDB).

Bounds are passed on as bounds.

Some targets named below: HLA-A*32:01; HLA-B*15:03; HLA-B*45:01; HLA-B*40:01; HLA-B*40:02; HLA-B*44:02; HLA-B*44:03; HLA-B*18:01; HLA-B*07:02; HLA-B*53:01; HLA-A*02:01; HLA-B*51:01.
What all share (experiment): IEDB peptide-MHC binding, purified MHC/competitive/radioactivity; filed as Kd, often an IC50 or EC50 that approximates it; ≥ and ≤ were set here for values at or beyond the usual limits of such assays
The target in the next test is HLA-A*30:01. The following applies: source organism: Vaccinia virus WR.
For a further test, the target named is HLA-B*15:01. The following applies: source organism: Vaccinia virus WR.
The next test deals with HLA-B*08:01. The conditions noted are these: source organism: Vaccinia virus WR.
A further test has as its target HLA-A*02:03. The conditions noted are these: source organism: Homo sapiens.
The mark [1] stands for this setting: source organism: Vaccinia virus WR.
The mark [2] stands for this setting: source organism: SARS coronavirus Tor2.
[3] abbreviates: source organism: Dengue virus 2 Jamaica/1409/1983.
Where [4] appears, read: source organism: Dengue virus 1 Singapore/S275/1990.
Setting [5] is: source organism: Mammarenavirus lassaense.
Where [6] appears, read: source organism: Dengue virus 4 Philippines/H241/1956.
[7] abbreviates: source organism: Mammarenavirus machupoense.
[8] abbreviates: source organism: Vaccinia virus Copenhagen.
Where [9] appears, read: source organism: Mammarenavirus brazilense.

Usually Kd stands for the equilibrium constant for the complex coming apart. Regarding RLQPNQPPK, the Kd with HLA-A*32:01 (setting [1]) stood at 1.52 µM; with HLA-B*15:03 (setting [1]) it was 0.298 µM; with HLA-A*30:01, 0.145 µM; with HLA-B*15:01, 0.934 µM; with HLA-B*08:01, 1.01 µM.

In the case of GEDIQLLKA, the Kd with HLA-B*45:01 (setting [2]) is 2.88 µM; with HLA-B*40:01 (setting [2]), 7.55 µM; with HLA-B*40:02 (setting [2]), 2.73 µM; with HLA-B*44:02 (setting [2]) it was 13.6 µM; with HLA-B*44:03 (setting [2]) it was 2.66 µM; in the test with HLA-B*18:01 (setting [2]), 1.08 µM.

Turning to IPTAMAFHL, the Kd is 0.0831 µM in the test with HLA-B*07:02 (setting [3]) and 0.0494 µM with HLA-B*53:01 (setting [3]).

In the case of KEGFFTYLCG, the Kd is 2.89 µM with HLA-B*45:01 (setting [2]); 1.64 µM with HLA-B*40:01 (setting [2]); 3.75 µM with HLA-B*40:02 (setting [2]); 2.62 µM in the test with HLA-B*44:02 (setting [2]); 0.369 µM with HLA-B*44:03 (setting [2]); not below 70.5 µM with HLA-B*18:01 (setting [2]).

For the sequence MEVTARWLW, the Kd with HLA-B*44:02 (setting [4]) is 0.0021 µM; with HLA-B*44:03 (setting [4]), 0.0109 µM; with HLA-B*53:01 (setting [4]), 0.804 µM.

For the sequence FSGSFASIF, in the test with HLA-B*15:03 (setting [1]), the Kd amounted to 0.000318 µM.

On to AEFKSRFFVW, for which the Kd in the test with HLA-B*45:01 (setting [5]) was 0.0514 µM; with HLA-B*40:01 (setting [5]) it was 2.33 µM; in the test with HLA-B*40:02 (setting [5]) it was 0.0294 µM; with HLA-B*44:02 (setting [5]), 0.0136 µM; with HLA-B*44:03 (setting [5]), 0.0156 µM; with HLA-B*18:01 (setting [5]) it was 0.271 µM.

Consider LEWLAEVVKL, for which the Kd is 9.16 µM with HLA-B*45:01 (setting [2]); 0.104 µM with HLA-B*40:01 (setting [2]); not below 20.1 µM with HLA-B*40:02 (setting [2]); 9.31 µM with HLA-B*44:02 (setting [2]); 7.24 µM in the test with HLA-B*44:03 (setting [2]); 1.24 µM with HLA-B*18:01 (setting [2]).

Regarding ALKRAQSEL, the results for the Kd with HLA-A*02:01 (source organism: Homo sapiens) and in the test with HLA-A*02:03 were not below 41.8 µM and 0.0233 µM, respectively.

On to LPVWLAYRV, for which the Kd is 0.13 µM with HLA-B*51:01 (setting [3]) and 0.2 µM with HLA-B*53:01 (setting [3]).

Consider AAFEFINSL, for which the Kd with HLA-B*15:03 (setting [1]) turned out to be 0.00455 µM.

In the case of RLNPEVSYF, the Kd with HLA-B*15:03 (setting [1]) worked out at 0.00032 µM; in the test with HLA-B*15:01, 0.000304 µM.

As to SPIEDIEREI, the Kd with HLA-B*07:02 (setting [6]) is 5.45 µM; in the test with HLA-B*51:01 (setting [6]), not below 22 µM; in the test with HLA-B*53:01 (setting [6]), 0.411 µM.

With RELLKSLSGL, the Kd is not below 70 µM in the test with HLA-B*45:01 (setting [7]); 0.877 µM in the test with HLA-B*40:01 (setting [7]); 0.0612 µM with HLA-B*40:02 (setting [7]); not below 22.5 µM with HLA-B*44:02 (setting [7]); not below 23.3 µM with HLA-B*44:03 (setting [7]); not below 70.4 µM with HLA-B*18:01 (setting [7]).

MIKIALSVA: the Kd in the test with HLA-A*32:01 (setting [1]) is 4.69 µM; in the test with HLA-B*15:03 (setting [1]) it was 0.559 µM; with HLA-A*30:01, 1.27 µM; with HLA-B*15:01, 2.78 µM; in the test with HLA-B*08:01, 0.535 µM.

Consider SMWYIPNVF, for which the Kd with HLA-A*32:01 (setting [8]) was 0.0051 µM; with HLA-B*15:03 (setting [8]), 0.000722 µM.

With GLQSQQGHL, the Kd with HLA-A*02:01 (source organism: Hepatitis B virus subtype ayw) is not below 5 µM.

Consider TEQFLCYAL, for which the Kd turned out to be 0.0266 µM in the test with HLA-B*45:01 (setting [7]); 10.6 µM in the test with HLA-B*40:01 (setting [7]); 0.00888 µM with HLA-B*40:02 (setting [7]); 0.143 µM with HLA-B*44:02 (setting [7]); 1.5 µM with HLA-B*44:03 (setting [7]); 0.021 µM with HLA-B*18:01 (setting [7]).

Consider SSKVFLKAF, for which the Kd with HLA-A*32:01 (setting [1]) came to 7.02 µM; in the test with HLA-B*15:03 (setting [1]), 0.000369 µM; with HLA-A*30:01, 2.41 µM; with HLA-B*15:01 it was 0.0017 µM; in the test with HLA-B*08:01, 0.728 µM.

Consider GEHSLPRCW, for which the Kd was 8.74 µM in the test with HLA-B*45:01 (setting [9]); not below 42.8 µM with HLA-B*40:01 (setting [9]); 2.14 µM in the test with HLA-B*40:02 (setting [9]); 0.0242 µM with HLA-B*44:02 (setting [9]); 0.0802 µM with HLA-B*44:03 (setting [9]); not below 77.5 µM in the test with HLA-B*18:01 (setting [9]).

Take VGVNHSNTF: the Kd with HLA-B*15:03 (setting [1]) came out at 0.0806 µM.

Take LHAVYSIVF: the Kd in the test with HLA-B*15:03 (setting [1]) was 0.00881 µM.

For REVGDTSSDL, the Kd with HLA-B*45:01 (setting [5]) is not below 70 µM; with HLA-B*40:01 (setting [5]), 11.5 µM; with HLA-B*40:02 (setting [5]), 1.36 µM; with HLA-B*44:02 (setting [5]), not below 24.5 µM; in the test with HLA-B*44:03 (setting [5]) it was not below 24.8 µM; with HLA-B*18:01 (setting [5]), not below 70.4 µM.

YKFSCGLSL: the Kd in the test with HLA-B*15:03 (setting [1]) turned out to be 0.000132 µM.
